Measured values published in article PMC10471729, “Luvadaxistat: A Novel Potent and Selective D-Amino Acid Oxidase Inhibitor Improves Cognitive and Social Deficits in Rodent Models for Schizophrenia” (Neurochemical Research, 2023).

Tested on: T1, N[C@H](CO)C(=O)O
T1 construct: human recombinant DAAO enzyme
Assay: Amplex Red H2O2 detection; Michaelis constant (in-house data)
Format: biochemical, Homo sapiens
Conditions: FAD

Chain of D-amino acid oxidase (DAAO) (Homo sapiens) (chain, as listed by the source): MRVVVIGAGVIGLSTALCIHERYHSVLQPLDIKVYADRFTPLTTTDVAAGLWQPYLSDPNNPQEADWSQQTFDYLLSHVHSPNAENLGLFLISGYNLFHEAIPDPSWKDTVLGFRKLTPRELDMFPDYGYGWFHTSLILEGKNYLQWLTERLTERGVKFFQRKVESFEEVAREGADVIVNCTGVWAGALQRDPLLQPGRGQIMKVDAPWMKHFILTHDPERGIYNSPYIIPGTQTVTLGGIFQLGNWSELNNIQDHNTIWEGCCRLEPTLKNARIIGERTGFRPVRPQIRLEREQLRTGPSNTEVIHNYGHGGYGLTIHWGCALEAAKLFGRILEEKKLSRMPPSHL

How did the Km turn out when “D-amino acid oxidase (DAAO) (Homo sapiens)” was run?
The Km was 1200 µM.
